Measurements reported in paper PMC3262836.

Biological target: Archeoglobus fulgidus HypB (A. fulgidus)
Assay: SEC-MALS; SEC/LS, Superdex-75 HR10/30, 100 uL at 3 mg/mL, with 1 mM GMPPNP (GTP analog), 50 mM Tris pH 7.5, 0.1 M NaCl, 5 mM MgCl2, 1 mM TCEP, room temperature; monomer to dimer

“Archeoglobus fulgidus HypB (natural protein)” was tested, and the stoichiometry N was 2.
